Values quoted from earlier work in paper PMC4166557.

Target: MLL MBM1 4-15 (Homo sapiens) (UniProt Q03164)

In the case of menin (from UniProt O00255), the Kd is given as 56 nM.
